Source: patent US12624096B2, “Anti-tau antibodies and methods of use thereof” (GTInvent Limited, priority 2020, dated 2026)
“Also recorded” adds a separate entry of the source.

Target: dGAE (Homo sapiens, UniProt P10636)
Test: dGAE fibril assembly, circular dichroism
Format: biochemical
Conditions: 100 μM dGAE + 25 μM antibody (4:1), antibody spectrum subtracted
Protocol: dGAE protein was diluted into 10 mM phosphate buffer, pH 7.4 (PB) with monoclonal antibody s1D12 at a ratio of 4:1 protein: Ab (100 μM dGAE+25 μM s1D12 and 10 μM dGAE+2.5 μM s1D12) or 1:1 (25 μM dGAE+25 μM s1D12).
As a positive control, dGAE was prepared at a final concentration of 10, 25 or 100 μM in 10 mM PB. Negative controls consisted of dGAE with a non-tau IgG antibody at a ratio of 4:1 (10 μM dGAE+2.5 μM anti-ovalbumin), or antibody alone (25 or 2.5 μM s1D12 and 2.5 μM anti-ovalbumin). Samples were agitated at 700 rpm at 37° C., for 3 days.
For CD, 60 μL sample was placed in a 0.1 mm quartz cuvette and placed into a JASCO spectropolarimeter. 100 μL ThS in 20 mM MOPS buffer was added to 50 μL of each sample to a final concentration of 20 μM, mixed well, incubated at room temperature for 10 minutes then fluorescence intensity measured in a Cary Eclipse spectrophotometer using an excitation wavelength of 440 nm. Baseline readings from 10 mM PB were subtracted from CD and ThS measurements.

dGAE, sequence (P10636 614-708): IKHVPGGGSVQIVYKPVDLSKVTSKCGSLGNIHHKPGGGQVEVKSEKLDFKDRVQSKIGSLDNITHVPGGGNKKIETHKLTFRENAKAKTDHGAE

B1: S1D12: anti-tau clone from immunised sheep, SEQ ID NO: 32 (protein)
scFv: QVQLQESGPSLVKPSQTLSLTCTVSGFSLNNNAVGWVRQAPGKVPESLVGCSSDGTCYYNSALKSRLDITRDTSKNQISLSLSSVTTDDAAVYYCTRGHYSIYGYDYLGTIDYWGPGLLVTVSSEGKSSGASGESKVDDQAVLTQPSSVSGSLGQRVSITCSGSSSNVGGGNSVGWYQHLPGSGLKTIIYDTNSRPSGVPDRFSGSRSGNTATLTINSLQAEDEGDYYCVTGDSTTHDDLVGSGTRLTVLG
modifications: S1D12 amino acid sequence
dGAE secondary structure by CD: dGAE cannot assemble into β-sheet rich fibrils; also recorded: indicating that dGAE has not assembled into fibrils
